Test [1] deals with T1, human RANK-L (human, UniProt O14788 140-317, limits assumed).
T1 construct: Soluble protein, used coated, biotinylated or labelled in ELISA, AlphaScreen, FMAT and Biacore; also called hRANK-L; soluble human RANK-L
T1 sequence (looked up): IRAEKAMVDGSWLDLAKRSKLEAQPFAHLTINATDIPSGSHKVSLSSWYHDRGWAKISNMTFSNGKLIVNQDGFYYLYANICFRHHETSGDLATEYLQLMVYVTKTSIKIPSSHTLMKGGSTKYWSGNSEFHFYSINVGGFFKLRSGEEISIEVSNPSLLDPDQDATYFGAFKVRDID
Nature of the test: FMAT, ALEXA647-hRANK-L / RANK on HEK293T cells. As to the method: HEK293T cells were transiently transfected with the plasmid expressing full length RANK using Fugene6 as described in example 3. After 24 hours aliquots of 60 μl (7.5×10³ cells) were plated into FMAT system 384-well plates (PE Biosystems, CA, US) and allowed to adhere for 24 h. After overnight adherence, culture supernatant was removed by gently tapping the plate. […] The plates were scanned after 10 hours of incubation. Cell surface fluorescence was measured by 8200 Cellular Detection System (Applied Biosystems, Foster City, Calif., US) which is a fluorescence macro-confocal, biological binding event analyzer that enables mix-and-read assays with live cells.

Test [2] deals with T2, cynomolgus RANK-L, full length, membrane-bound, expressed on HEK293T cells (cynomolgus monkey, UniProt A0A7N9DBU4 1-317).
T2 construct: whole, on cells; also called cyno RANK-L
T2 sequence: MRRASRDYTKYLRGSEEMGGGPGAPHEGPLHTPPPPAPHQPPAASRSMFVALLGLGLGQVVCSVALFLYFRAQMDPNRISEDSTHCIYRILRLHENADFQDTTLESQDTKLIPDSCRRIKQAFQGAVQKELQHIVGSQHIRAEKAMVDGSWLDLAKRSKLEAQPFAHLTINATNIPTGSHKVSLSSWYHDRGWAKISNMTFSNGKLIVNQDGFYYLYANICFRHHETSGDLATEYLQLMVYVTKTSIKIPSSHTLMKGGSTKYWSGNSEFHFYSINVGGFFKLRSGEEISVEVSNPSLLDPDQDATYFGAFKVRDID
Nature of the test: FACS, HEK293T with cynomolgus RANK-L, 400 pM Nanobody. As to the method:
(§1) Human embryonic kidney cells (HEK293T) were grown in Dulbecco's modified Eagles's medium supplemented with 10% fetal bovine serum (FBS), […] L-glutamine, 0.4 mM sodium pyruvate. […] After 48 hours, transfected cells were subjected to FACS analysis. […] Then cells were washed three times with FACS buffer. Bound Nanobodies were detected by subsequent incubations of a primary mouse anti Myc antibody (30 min at 4° C. (2 μg/ml)) and a second incubation with goat anti mouse-Phycoerythrin (PE) (Jackson Laboratories) for another 30 min at 4° C. Finally, after washing, the cells were resuspended in PBS+10% FBS+TO-PRO®-3 (5 nM) (Molecular Probes®, Invitrogen, Merelbeke, Belgium) and cell surface fluorescence expressed as mean PE fluorescence, was measured using flow cytometry.

Test [3] deals with T2, cynomolgus RANK-L, full length, …. Nature of the test: FACS, HEK293T with cynomolgus RANK-L, 2000 pM Nanobody. As to the method:
as §1

Test [4] deals with T1, human RANK-L. Nature of the test: AlphaScreen, biotin-hRANK-L / RANK-huFc beads. As to the method:
To this mixture, the RANK acceptor beads and the streptavidin donor beads were added and further incubated for 1 hour at room temperature. Fluorescence was measured by reading plates on the EnVision Multilabel Plate Reader (Perkin Elmer) using an excitation wavelength of 680 nm and an emission wavelength of 520 nm.

Test [5] concerns the target T3, human RANK-L, full length, membrane-bound, expressed on HEK293T cells (human, UniProt O14788 1-317).
T3 construct: whole, on cells; also called hRANK-L
T3 sequence (looked up): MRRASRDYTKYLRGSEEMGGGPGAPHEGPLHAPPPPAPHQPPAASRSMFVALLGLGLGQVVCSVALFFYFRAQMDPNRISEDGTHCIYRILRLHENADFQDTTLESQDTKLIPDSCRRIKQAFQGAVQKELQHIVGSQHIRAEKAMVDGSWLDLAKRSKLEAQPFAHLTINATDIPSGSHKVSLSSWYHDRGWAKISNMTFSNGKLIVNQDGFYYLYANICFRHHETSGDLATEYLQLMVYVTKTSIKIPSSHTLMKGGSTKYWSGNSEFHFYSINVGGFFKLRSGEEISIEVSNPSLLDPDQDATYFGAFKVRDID
Nature of the test: FACS, HEK293T with human RANK-L, 16 pM Nanobody. As to the method:
as §1

For test [6], the target named is T1, human RANK-L. Nature of the test: AlphaScreen, biotin-hRANK-L / RANK-huFc beads. The source holds these as a separate data set.
The target of test [7] is T1, human RANK-L. Nature of the test: SPR Biacore 3000, hRANK-L on CM5, 100 nM Nanobody. As to the method:
(§2) Binding kinetics of the humanized versions of Nanobodu RANL13 were also analysed by Surface Plasmon Resonance (Biacore 3000). […] Nanobody binding was assessed at one concentration (100 nM). Each Nanobody was injected for 4 minutes at a flow rate of 45 μl/min to allow binding to chip-bound antigen. Next, binding buffer without Nanobody was sent over the chip at the same flow rate to allow spontaneous dissociation of bound Nanobody.

In test [8] the target is T1, human RANK-L. Nature of the test: AlphaScreen, biotin-hRANK-L / RANK-huFc beads. The source holds these as a separate data set.
In test [9] the target is T1, human RANK-L. Nature of the test: ELISA (ED50), biotin-hRANK-L on neutravidin. The method in brief: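 Nanobodies at 500 nM to 160 pM in 1% casein/PBS incubated 1 h at room temperature; binding detected via anti-myc then anti-mouse-HRP with TMB, OD 450 nm.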
For test [10], the target named is T1, human RANK-L. Nature of the test: SPR Biacore 3000, hRANK-L on CM5, 100 nM Nanobody; only indicative (one concentration). As to the method:
as §2

B1: RANKL13 (VHH, not shown: small tags and cut ends)
VHH: EVQLVESGGGLVQAGGSLRLSCAASGRTFRSYPMGWFRQAPGKEREFVASITGSGGSTYYADSVKGRFTISRDNAKNTVYLQMNSLRPEDTAVYSCAAYIRPDTYLSRDYRKYDYWGQGTQVTVSS
As for B1, the IC50 in [1] was 0.429 nM; in [4] it was 0.185 nM; in test [6], 0.147 nM; in test [8], 0.12 nM. The PE mean fluorescence in test [2] is 4110; in [3], 12400; in [5] it was 499. In test [7], the dissociation rate constant (koff) was 0.00025 s⁻¹. The molecule also had an EC50 in [9] of 0.226 nM. In addition, binding in test [10] was put at a Kd of 0.5 nM. For the same molecule, the kon in [10] worked out at 500000 M⁻¹ s⁻¹.

B2: RANKL18 (VHH, not shown: small tags and cut ends)
VHH: EVQLVESGGGLVQAGGSLRLSCAASGRTFSRSAMGWFRQAPGKEREFVGFITGSGGTTYYGESVKGRFTISRDNAQNPVYLQMNSLKPEDTAVYYCGVYRRTYISSTYSESSEYDYWGQGTQVTVSS
As to B2, the IC50 in test [1] is 0.552 nM; in test [4], 0.146 nM; in test [6] it was 0.187 nM; in [8], 0.253 nM. The PE mean fluorescence in test [2] was 3490; in test [3], 12000; in [5] it was 218. Also, the koff in [7] came to 5.6e-05 s⁻¹. Moreover, the EC50 in test [9] came to 0.242 nM. Also, the Kd in [10] came out at 0.18 nM. In test [10], this molecule had a kon of 310000 M⁻¹ s⁻¹.

(Values after patent US20110002929A1 (Ablynx, published 2011).)
